According to the RNAGym collection of RNA variant scans (doi:10.7554/elife.80360):

B1: HDV Ribozyme (parent)
chain: GGCCGGCAUGGUCCCAGCCUCCUCGCUGGCGCCGGCUGGGCAACAUUCCGAGGGGACCGUCCCCUCGGUAAUGGCGAAUGGGACCCA

Variants of: B1
Test: self-cleavage, relative activity (ratio to wild type); higher = more cleavage; co-transcriptional

| Variant | self-cleavage |
| --- | --- |
| G31A U60A | 0.49 |
| C22U U60G | 0.944 |
| G39C C86G | 0.259 |
| C14A C64A | 0.793 |
| U37A U47C | 0.289 |
| C24G U47C | 0.0462 |
| G34C G68U | 0.199 |
| C19A C24A | 0.0831 |
| C32U G76A | 0.946 |
| C32U G76U | 0.751 |
| G67C G73U | 0.322 |
| U9C G55A | 1.27 |
| U60A A87U | 0.985 |
| G1U G67U | 0.332 |
| U37A G76C | 0.203 |
| U37C A43U | 0.172 |
| G54C G80A | 0.362 |
| C49A A51G | 0.748 |
| C61U A87G | 0.933 |
| C64A U69G | 1.15 |
| U23A A56U | 1.08 |
| C32U C44U | 0.564 |
| G34C G59A | 0.143 |
| C41U A78G | 0.724 |

| Variant | self-cleavage |
| --- | --- |
| C19A C84U | 0.0804 |
| G17C C19U | 0.128 |
| G5A C18U | 0 |
| G25A C62U | 0.182 |
| U9C A51C | 1.49 |
| C58G U72C | 0.369 |
| G28A G34C | 0.0536 |
| G5U G11U | 0.156 |
| C22A G55C | 0.262 |
| G39A A87C | 0.578 |
| G38A U47G | 0.116 |
| C24A G40U | 0.41 |
| U72A A77G | 0.57 |
| C26G C30G | 0 |
| U69A G82A | 0.233 |
| G6A A70G | 0.629 |
| G5C A16U | 0.237 |
| G5C G59U | 0.128 |
| G17C G73U | 0.0852 |
| C48A G52U | 0.974 |
| G39U G59A | 0.636 |
| C44U G53A | 0.709 |
| C3U C26A | 0.923 |
| G1A G17U | 0.0449 |

| Variant | self-cleavage |
| --- | --- |
| C49A C57G | 0.898 |
| C14G C32U | 0.196 |
| U37C U65G | 0.906 |
| U23A C61G | 1.08 |
| U9G G17C | 0.166 |
| U37G A77U | 0.138 |
| C33A C62U | 0.241 |
| C33G C58U | 0.147 |
| U37G C85G | 0.201 |
| G39C G53U | 0.133 |
| A43G G54U | 0.514 |
| G5A U20A | 0.0437 |
| U46C C48G | 1.18 |
| C7U A56G | 0.997 |
| C18G G50A | 0.138 |
| C32U C58G | 0.646 |
| A43C C44A | 0.665 |
| C36G C61G | 0.0386 |
| C62A C86U | 1.03 |
| U27G C49A | 0.886 |
| U47A G53C | 1.19 |
| C3A C7G | 0.0223 |
| G31C C63A | 0.344 |
| C49A C61U | 0.789 |

| Variant | self-cleavage |
| --- | --- |
| G1U G34A | 0.298 |
| G11U C85U | 0.767 |
| G76C | 1 |
| G17A G59A | 0.635 |
| A51C C86U | 1.01 |
| U23C G31A | 0.266 |
| C84G A87G | 0.282 |
| G25A G81A | 0.125 |
| G40C A42G | 0.196 |
| G6U A42C | 0 |
| G17A U20C | 0.268 |
| U47G A70U | 1.4 |
| C44U C85A | 0.814 |
| G10U C61U | 0.684 |
| A16U G80U | 0.41 |
| C14A A42U | 0.201 |
| G25A G29U | 0.0941 |
| C3G C26U | 1.2 |
| A45U U69G | 0.855 |
| C36U G80C | 0.12 |
| U9G C44A | 0.415 |
| G52A G73U | 0.338 |
| C19U A71U | 0.13 |
| A8C U72A | 0.375 |

| Variant | self-cleavage |
| --- | --- |
| C14A C57A | 0.745 |
| G17U A71G | 0.323 |
| G6U G73C | 0.266 |
| C32A A83G | 0.152 |
| A51C G53A | 0.491 |
| C19U U20A | 0.149 |
| A45G U65A | 0.767 |
| C41G G68U | 0.596 |
| C26A G52C | 0.872 |
| G38U G76U | 0.237 |
| G34U C84G | 0.161 |
| G73U A87U | 0.374 |
| C33A C44G | 0.0475 |
| G5C C84A | 0.142 |
| U12C C30A | 0.193 |
| A70C U72C | 0.369 |
| G6U C13U | 0.249 |
| U12C G34C | 0.115 |
| C61U C64U | 1.2 |
| G34A G74A | 0.0852 |
| C14U C32A | 0.101 |
| C3A A78G | 0.119 |
| A51C C66G | 0.864 |
| G10A C36G | 0.101 |

| Variant | self-cleavage |
| --- | --- |
| U9G G68U | 0.782 |
| C21A G54A | 0.0437 |
| C14G G38C | 0.142 |
| G35U C86G | 0.397 |
| C62G C75U | 0.189 |
| G25C G80U | 0.126 |
| G2C G34C | 0 |
| G5U G53C | 0.489 |
| G73U C75A | 0.107 |
| C64G C86A | 0.946 |
| G1C C4U | 0.0489 |
| C32G C75U | 0.0468 |
| G5C C32G | 0 |
| G74C G82A | 0.166 |
| G31A U37A | 0.128 |
| A42C U79A | 0.213 |
| U47A A77U | 0.516 |
| G10A G34U | 0.257 |
| G29U C32G | 0.0455 |
| C3G G74C | 0.0779 |
| G39U G74C | 0.23 |
| C75G G80C | 0.0709 |
| G28C G73A | 0 |
| C33U U37C | 0.923 |

| Variant | self-cleavage |
| --- | --- |
| C33G G74A | 0.0449 |
| U60A C64G | 0.954 |
| U27C C61G | 0.795 |
| C22A C62G | 0.212 |
| A56C G59C | 1.05 |
| U20C U37A | 0.107 |
| G6U G76C | 0.676 |
| C7G G40U | 0.268 |
| C44G C62A | 0.875 |
| U27G G80A | 0.533 |
| A43U A78U | 0.0489 |
| U60G A78G | 0.72 |
| A45C U47G | 0.95 |
| G5U U27A | 0.443 |
| G59U A87G | 0.993 |
| C3U C4A | 0.0817 |
| C15U C85A | 0.962 |
| C4G U37C | 0.375 |
| C48A A78U | 0.242 |
| U79G C84U | 0.554 |
| U60A A83U | 0.356 |
| G17U C64G | 0.495 |
| C57A C64U | 1 |
